B1: Polycystin-2 (Homo sapiens), Q13563 (parent)
chain: MVNSSRVQPQQPGDAKRPPAPRAPDPGRLMAGCAAVGASLAAPGGLCEQRGLEIEMQRIRQAAARDPPAGAAASPSPPLSSCSRQAWSRDNPGFEAEEEEEEVEGEEGGMVVEMDVEWRPGSRRSAASSAVSSVGARSRGLGGYHGAGHPSGRRRRREDQGPPCPSPVGGGDPLHRHLPLEGQPPRVAWAERLVRGLRGLWGTRLMEESSTNREKYLKSVLRELVTYLLFLIVLCILTYGMMSSNVYYYTRMMSQLFLDTPVSKTEKTNFKTLSSMEDFWKFTEGSLLDGLYWKMQPSNQTEADNRSFIFYENLLLGVPRIRQLRVRNGSCSIPQDLRDEIKECYDVYSVSSEDRAPFGPRNGTAWIYTSEKDLNGSSHWGIIATYSGAGYYLDLSRTREETAAQVASLKKNVWLDRGTRATFIDFSVYNANINLFCVVRLLVEFPATGGVIPSWQFQPLKLIRYVTTFDFFLAACEIIFCFFIFYYVVEEILEIRIHKLHYFRSFWNCLDVVIVVLSVVAIGINIYRTSNVEVLLQFLEDQNTFPNFEHLAYWQIQFNNIAAVTVFFVWIKLFKFINFNRTMSQLSTTMSRCAKDLFGFAIMFFIIFLAYAQLAYLVFGTQVDDFSTFQECIFTQFRIILGDINFAEIEEANRVLGPIYFTTFVFFMFFILLNMFLAIINDTYSEVKSDLAQQKAEMELSDLIRKGYHKALVKLKLKKNTVDDISESLRQGGGKLNFDELRQDLKGKGHTDAEIEAIFTKYDQDGDQELTEHEHQQMRDDLEKEREDLDLDHSSLPRPMSSRSFPRSLDDSEEDDDEDSGHSSRRRGSISSGVSYEEFQVLVRRVDRMEHSIGSIVSKIDAVIVKLEIMERAKLKRREVLGRLLDGVAEDERLGRDSEIHREQMERLVREELERWESDDAASQISHGLGTPVGLNGQPRPRSSRPSSSQSTEGMEGAGGNGSSNVHV

Variants of: B1
Settings: with TRPC1, P48995-2
Sequence of TRPC1, P48995-2 (P48995 other isoform, or with tags, fused parts or gaps): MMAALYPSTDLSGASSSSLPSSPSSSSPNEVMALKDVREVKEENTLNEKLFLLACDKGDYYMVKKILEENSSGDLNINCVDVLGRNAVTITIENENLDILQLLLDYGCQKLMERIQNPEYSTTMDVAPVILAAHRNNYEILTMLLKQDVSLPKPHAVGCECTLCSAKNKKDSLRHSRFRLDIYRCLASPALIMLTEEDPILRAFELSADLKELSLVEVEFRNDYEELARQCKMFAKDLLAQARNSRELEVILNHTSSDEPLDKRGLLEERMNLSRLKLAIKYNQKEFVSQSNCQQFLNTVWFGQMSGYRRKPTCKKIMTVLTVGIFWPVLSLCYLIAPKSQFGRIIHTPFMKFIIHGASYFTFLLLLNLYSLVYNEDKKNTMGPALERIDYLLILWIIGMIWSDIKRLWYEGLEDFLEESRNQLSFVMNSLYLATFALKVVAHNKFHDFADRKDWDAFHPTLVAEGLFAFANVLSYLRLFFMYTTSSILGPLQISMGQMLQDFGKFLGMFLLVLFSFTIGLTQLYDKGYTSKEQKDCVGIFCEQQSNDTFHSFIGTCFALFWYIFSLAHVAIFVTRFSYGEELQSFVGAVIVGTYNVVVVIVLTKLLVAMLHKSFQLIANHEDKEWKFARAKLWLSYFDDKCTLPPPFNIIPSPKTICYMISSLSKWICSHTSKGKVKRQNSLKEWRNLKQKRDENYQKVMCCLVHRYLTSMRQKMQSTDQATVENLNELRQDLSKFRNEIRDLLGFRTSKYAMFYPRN

Variant	effect of a mutation on the interaction
D886A	disrupting interaction

Variants of: B1
Settings: with pkd1_human PKD1, P98161
Sequence of pkd1_human PKD1, P98161 (P98161 whole entry, looked up): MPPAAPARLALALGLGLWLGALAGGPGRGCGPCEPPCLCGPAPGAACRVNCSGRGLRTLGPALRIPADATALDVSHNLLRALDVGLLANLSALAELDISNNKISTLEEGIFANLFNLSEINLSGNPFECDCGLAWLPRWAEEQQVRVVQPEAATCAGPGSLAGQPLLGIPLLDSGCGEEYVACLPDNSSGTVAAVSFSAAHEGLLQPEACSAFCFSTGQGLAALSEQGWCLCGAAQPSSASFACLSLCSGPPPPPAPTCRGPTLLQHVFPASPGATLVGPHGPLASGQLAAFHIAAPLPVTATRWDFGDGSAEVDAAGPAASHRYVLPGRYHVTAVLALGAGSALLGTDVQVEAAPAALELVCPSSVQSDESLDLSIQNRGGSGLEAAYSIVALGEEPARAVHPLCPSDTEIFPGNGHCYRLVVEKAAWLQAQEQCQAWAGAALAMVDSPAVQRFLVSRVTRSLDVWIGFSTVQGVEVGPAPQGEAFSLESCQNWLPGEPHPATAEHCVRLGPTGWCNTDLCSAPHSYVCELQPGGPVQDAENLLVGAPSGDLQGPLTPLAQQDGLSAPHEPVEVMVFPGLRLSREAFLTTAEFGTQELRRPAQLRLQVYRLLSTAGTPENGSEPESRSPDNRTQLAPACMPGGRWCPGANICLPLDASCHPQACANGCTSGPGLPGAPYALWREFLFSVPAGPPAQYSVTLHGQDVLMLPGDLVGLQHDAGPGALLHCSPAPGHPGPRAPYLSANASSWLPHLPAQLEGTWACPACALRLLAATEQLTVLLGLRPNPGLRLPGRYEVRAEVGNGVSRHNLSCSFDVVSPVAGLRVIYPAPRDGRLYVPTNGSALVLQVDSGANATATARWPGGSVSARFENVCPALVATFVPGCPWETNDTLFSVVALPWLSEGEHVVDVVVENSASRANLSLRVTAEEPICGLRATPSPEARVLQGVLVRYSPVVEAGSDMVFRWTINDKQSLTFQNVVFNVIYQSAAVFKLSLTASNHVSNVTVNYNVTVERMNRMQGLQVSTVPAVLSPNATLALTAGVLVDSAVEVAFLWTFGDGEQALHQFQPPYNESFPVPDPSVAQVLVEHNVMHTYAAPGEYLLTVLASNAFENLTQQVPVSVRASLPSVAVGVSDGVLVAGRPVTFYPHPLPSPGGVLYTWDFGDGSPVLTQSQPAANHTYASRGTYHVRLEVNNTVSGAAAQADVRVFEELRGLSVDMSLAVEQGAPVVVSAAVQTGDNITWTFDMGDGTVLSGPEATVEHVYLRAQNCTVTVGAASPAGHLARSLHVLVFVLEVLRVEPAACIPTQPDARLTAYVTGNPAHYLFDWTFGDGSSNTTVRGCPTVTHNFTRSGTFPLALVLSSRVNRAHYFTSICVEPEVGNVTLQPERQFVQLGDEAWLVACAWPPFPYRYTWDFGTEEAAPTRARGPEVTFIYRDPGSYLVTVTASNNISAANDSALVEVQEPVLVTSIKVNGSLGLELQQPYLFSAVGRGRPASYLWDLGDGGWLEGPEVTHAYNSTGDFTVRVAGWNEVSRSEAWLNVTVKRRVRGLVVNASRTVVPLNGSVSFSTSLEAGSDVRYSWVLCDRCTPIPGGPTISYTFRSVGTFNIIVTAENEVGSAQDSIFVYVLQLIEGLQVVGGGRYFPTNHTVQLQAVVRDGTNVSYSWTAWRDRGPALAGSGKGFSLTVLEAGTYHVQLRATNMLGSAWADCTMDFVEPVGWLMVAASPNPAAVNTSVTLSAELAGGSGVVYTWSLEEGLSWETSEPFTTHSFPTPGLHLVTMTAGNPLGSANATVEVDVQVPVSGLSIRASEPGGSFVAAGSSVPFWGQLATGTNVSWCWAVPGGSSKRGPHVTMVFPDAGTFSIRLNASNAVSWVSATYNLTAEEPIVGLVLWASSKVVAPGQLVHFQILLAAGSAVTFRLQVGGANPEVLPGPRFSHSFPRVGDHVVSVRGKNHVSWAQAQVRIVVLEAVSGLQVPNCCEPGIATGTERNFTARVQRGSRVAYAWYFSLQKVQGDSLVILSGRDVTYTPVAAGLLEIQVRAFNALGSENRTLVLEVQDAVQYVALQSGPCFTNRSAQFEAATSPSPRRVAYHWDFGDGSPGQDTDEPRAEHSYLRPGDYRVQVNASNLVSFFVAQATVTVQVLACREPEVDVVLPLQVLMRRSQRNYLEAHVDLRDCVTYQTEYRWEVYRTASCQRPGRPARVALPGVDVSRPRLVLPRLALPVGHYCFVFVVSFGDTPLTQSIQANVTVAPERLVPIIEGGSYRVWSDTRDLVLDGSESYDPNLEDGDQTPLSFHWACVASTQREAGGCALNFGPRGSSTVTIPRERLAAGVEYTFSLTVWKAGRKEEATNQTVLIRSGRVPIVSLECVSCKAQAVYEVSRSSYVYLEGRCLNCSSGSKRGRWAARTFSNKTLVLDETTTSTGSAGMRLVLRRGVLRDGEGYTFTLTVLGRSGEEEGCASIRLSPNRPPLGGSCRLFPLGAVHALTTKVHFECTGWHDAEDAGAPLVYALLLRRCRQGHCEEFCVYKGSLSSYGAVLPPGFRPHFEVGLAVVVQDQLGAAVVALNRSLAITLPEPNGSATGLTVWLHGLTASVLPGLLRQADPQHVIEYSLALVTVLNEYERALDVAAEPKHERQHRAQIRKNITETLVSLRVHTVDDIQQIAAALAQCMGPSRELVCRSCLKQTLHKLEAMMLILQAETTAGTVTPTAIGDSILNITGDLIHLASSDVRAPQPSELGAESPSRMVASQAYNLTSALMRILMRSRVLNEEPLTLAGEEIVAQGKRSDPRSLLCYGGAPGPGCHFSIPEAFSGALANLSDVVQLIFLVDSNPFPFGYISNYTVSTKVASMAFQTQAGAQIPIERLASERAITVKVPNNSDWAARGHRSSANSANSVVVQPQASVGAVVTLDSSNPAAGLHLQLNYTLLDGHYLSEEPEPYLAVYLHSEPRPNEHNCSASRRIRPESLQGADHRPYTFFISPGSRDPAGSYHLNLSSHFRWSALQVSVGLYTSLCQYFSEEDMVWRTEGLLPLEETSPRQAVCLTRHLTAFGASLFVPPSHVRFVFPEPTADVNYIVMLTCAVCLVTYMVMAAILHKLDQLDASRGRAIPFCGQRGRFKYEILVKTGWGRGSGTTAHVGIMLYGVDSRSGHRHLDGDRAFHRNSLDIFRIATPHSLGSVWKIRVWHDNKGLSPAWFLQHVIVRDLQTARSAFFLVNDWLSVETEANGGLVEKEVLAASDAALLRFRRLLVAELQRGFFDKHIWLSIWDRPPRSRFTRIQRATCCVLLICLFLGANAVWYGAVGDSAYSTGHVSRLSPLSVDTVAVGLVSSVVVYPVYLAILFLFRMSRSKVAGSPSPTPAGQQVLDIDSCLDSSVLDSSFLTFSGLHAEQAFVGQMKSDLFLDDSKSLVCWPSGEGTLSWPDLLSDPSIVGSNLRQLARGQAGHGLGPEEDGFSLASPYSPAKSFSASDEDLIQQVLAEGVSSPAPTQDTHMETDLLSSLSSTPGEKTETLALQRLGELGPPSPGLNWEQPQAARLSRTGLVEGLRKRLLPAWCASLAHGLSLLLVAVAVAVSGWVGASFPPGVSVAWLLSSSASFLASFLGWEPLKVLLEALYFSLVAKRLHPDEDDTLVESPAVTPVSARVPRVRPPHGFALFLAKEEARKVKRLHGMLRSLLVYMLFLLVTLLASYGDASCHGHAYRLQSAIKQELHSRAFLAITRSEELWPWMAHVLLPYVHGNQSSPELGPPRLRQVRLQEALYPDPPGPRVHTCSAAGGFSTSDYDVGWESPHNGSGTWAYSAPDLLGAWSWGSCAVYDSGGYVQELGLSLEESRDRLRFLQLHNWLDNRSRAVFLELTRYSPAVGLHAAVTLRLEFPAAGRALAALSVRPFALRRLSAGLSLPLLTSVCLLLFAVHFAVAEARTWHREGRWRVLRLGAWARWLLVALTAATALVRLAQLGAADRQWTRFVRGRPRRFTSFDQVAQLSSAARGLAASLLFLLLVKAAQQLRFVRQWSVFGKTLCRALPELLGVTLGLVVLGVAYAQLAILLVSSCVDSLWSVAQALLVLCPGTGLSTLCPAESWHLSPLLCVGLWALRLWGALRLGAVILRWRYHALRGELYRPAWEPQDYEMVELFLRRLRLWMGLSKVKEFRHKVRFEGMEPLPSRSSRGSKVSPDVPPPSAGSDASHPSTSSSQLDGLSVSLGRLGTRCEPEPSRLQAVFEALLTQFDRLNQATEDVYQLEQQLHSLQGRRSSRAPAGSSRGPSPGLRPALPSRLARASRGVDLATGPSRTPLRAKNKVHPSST

Variant	effect of a mutation on the interaction
L884H	disrupting interaction

— IntAct's records for PubMed 10097141
